From patent publication US20250122277A1 (Novartis, published 2025)

Assays:
rec rhesus monkey IL-17 [1] = target: T1, rec rhesus monkey IL-17 (rhesus monkey, UniProt F6T3G5 24-155); experiment: SPR (BIAcore 2000), mean n = 12
T1 sequence: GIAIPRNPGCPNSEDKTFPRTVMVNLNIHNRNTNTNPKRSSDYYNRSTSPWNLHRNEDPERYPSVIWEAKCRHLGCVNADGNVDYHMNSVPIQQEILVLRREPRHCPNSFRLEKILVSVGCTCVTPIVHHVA
From the text: (§1) Determination of kinetic binding parameters and levels of crossreactivity are done by surface plasmon resonance measurements using the optical biosensor BIAcore® 2000 (BIAcore AB, Upsalla, Sweden, see Lit. HS 1,2 for details). This technology allows the label-free determination the microscopic rate constants for binding (kₒₙ) and dissociation (koff) of a ligand to a receptor. It is therefore especially suited for characterizing the antibody-antigen interactions. […] Covalent binding of Fcγ capture antibody is done with the ‘Amine coupling kit’ provided by BIAcore (BIAcore, Cat. No. BR-1000-50). […] As a guideline, 1000 RUs correspond to a mass transfer of 1 ng/mm². […] The results are compared to the protocol described in Table 9 (see below).
(§2) Two independent runs testing 6 IL-17 concentrations in each run are performed. Concentrations for human IL-17 are 2, 4, 8, 12, 16, 20 nM and 10, 20, 30, 40, 50, 60 nM for all other species. Complete data analysis yields n=12 individual measurements for each IL-17 species. The KD as well as SEM is reported.

rec marmoset IL-17 [2] = target: T2, rec marmoset IL-17 (marmoset, UniProt A0ACM8QD00 24-153); experiment: SPR (BIAcore 2000), mean n = 10
T2 sequence: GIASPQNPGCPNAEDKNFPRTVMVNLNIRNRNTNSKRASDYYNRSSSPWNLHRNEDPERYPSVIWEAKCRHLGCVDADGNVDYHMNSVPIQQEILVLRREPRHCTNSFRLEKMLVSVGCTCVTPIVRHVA
From the text: as §1, §2

rec rhesus monkey IL-17 [3] = target: T1, rec rhesus monkey IL-17; experiment: SPR (BIAcore 2000), mean of run 1 + 2
From the text: as §1, §2

[4] = target: T3, rec cynomolgous monkey IL-17 (cynomolgous monkey); experiment: SPR (BIAcore 2000), mean of run 1 + 2
From the text: as §1, §2

[5] = target: T3, rec cynomolgous monkey IL-17; experiment: SPR (BIAcore 2000), 5 nM IL-17, run 1
From the text: as §1
(§3) Two independent runs testing 6 IL-17 concentrations in each run are performed. […] Complete data analysis yields n=12 individual measurements for each IL-17 species. The KD as well as SEM is reported.

[6] = target: T3, rec cynomolgous monkey IL-17; experiment: SPR (BIAcore 2000), 5 nM IL-17, run 2
From the text: as §1, §3

rec marmoset IL-17 [7] = target: T2, rec marmoset IL-17; experiment: SPR (BIAcore 2000), 10 nM IL-17, run 1
From the text: as §1, §2

rec rhesus monkey IL-17 [8] = target: T1, rec rhesus monkey IL-17; experiment: SPR (BIAcore 2000), 10 nM IL-17, run 1
From the text: as §1, §2

[9] = target: T3, rec cynomolgous monkey IL-17; experiment: SPR (BIAcore 2000), 10 nM IL-17, run 1
From the text: as §1, §2

rec marmoset IL-17 [10] = target: T2, rec marmoset IL-17; experiment: SPR (BIAcore 2000), 10 nM IL-17, run 2
From the text: as §1, §2

rec rhesus monkey IL-17 [11] = target: T1, rec rhesus monkey IL-17; experiment: SPR (BIAcore 2000), 10 nM IL-17, run 2
From the text: as §1, §2

[12] = target: T3, rec cynomolgous monkey IL-17; experiment: SPR (BIAcore 2000), 10 nM IL-17, run 2
From the text: as §1, §2

rec marmoset IL-17 [13] = target: T2, rec marmoset IL-17; experiment: SPR (BIAcore 2000), 20 nM IL-17, run 1
From the text: as §1, §2

rec rhesus monkey IL-17 [14] = target: T1, rec rhesus monkey IL-17; experiment: SPR (BIAcore 2000), 20 nM IL-17, run 1
From the text: as §1, §2

[15] = target: T3, rec cynomolgous monkey IL-17; experiment: SPR (BIAcore 2000), 20 nM IL-17, run 1
From the text: as §1, §2

rec marmoset IL-17 [16] = target: T2, rec marmoset IL-17; experiment: SPR (BIAcore 2000), 20 nM IL-17, run 2
From the text: as §1, §2

rec rhesus monkey IL-17 [17] = target: T1, rec rhesus monkey IL-17; experiment: SPR (BIAcore 2000), 20 nM IL-17, run 2
From the text: as §1, §2

[18] = target: T3, rec cynomolgous monkey IL-17; experiment: SPR (BIAcore 2000), 20 nM IL-17, run 2
From the text: as §1, §2

rec marmoset IL-17 [19] = target: T2, rec marmoset IL-17; experiment: SPR (BIAcore 2000), 30 nM IL-17, run 1
From the text: as §1, §2

rec rhesus monkey IL-17 [20] = target: T1, rec rhesus monkey IL-17; experiment: SPR (BIAcore 2000), 30 nM IL-17, run 1
From the text: as §1, §2

[21] = target: T3, rec cynomolgous monkey IL-17; experiment: SPR (BIAcore 2000), 30 nM IL-17, run 1
From the text: as §1, §2

rec marmoset IL-17 [22] = target: T2, rec marmoset IL-17; experiment: SPR (BIAcore 2000), 30 nM IL-17, run 2
From the text: as §1, §2

rec rhesus monkey IL-17 [23] = target: T1, rec rhesus monkey IL-17; experiment: SPR (BIAcore 2000), 30 nM IL-17, run 2
From the text: as §1, §2

[24] = target: T3, rec cynomolgous monkey IL-17; experiment: SPR (BIAcore 2000), 30 nM IL-17, run 2
From the text: as §1, §2

rec marmoset IL-17 [25] = target: T2, rec marmoset IL-17; experiment: SPR (BIAcore 2000), 40 nM IL-17, run 1
From the text: as §1, §2

rec rhesus monkey IL-17 [26] = target: T1, rec rhesus monkey IL-17; experiment: SPR (BIAcore 2000), 40 nM IL-17, run 1
From the text: as §1, §2

rec marmoset IL-17 [27] = target: T2, rec marmoset IL-17; experiment: SPR (BIAcore 2000), 40 nM IL-17, run 2
From the text: as §1, §2

rec rhesus monkey IL-17 [28] = target: T1, rec rhesus monkey IL-17; experiment: SPR (BIAcore 2000), 40 nM IL-17, run 2
From the text: as §1, §2

rec marmoset IL-17 [29] = target: T2, rec marmoset IL-17; experiment: SPR (BIAcore 2000), 50 nM IL-17, run 1
From the text: as §1, §2

rec rhesus monkey IL-17 [30] = target: T1, rec rhesus monkey IL-17; experiment: SPR (BIAcore 2000), 50 nM IL-17, run 1
From the text: as §1, §2

rec rhesus monkey IL-17 [31] = target: T1, rec rhesus monkey IL-17; experiment: SPR (BIAcore 2000), 60 nM IL-17, run 1
From the text: as §1, §2

rec rhesus monkey IL-17 [32] = target: T1, rec rhesus monkey IL-17; experiment: SPR (BIAcore 2000), 60 nM IL-17, run 2
From the text: as §1, §2

rec marmoset IL-17 [33] = target: T2, rec marmoset IL-17; experiment: SPR (BIAcore 2000), 50 nM IL-17, run 2
From the text: as §1, §2

[34] = target: T3, rec cynomolgous monkey IL-17; experiment: SPR (BIAcore 2000), 15 nM IL-17, run 2
From the text: as §1, §3

[35] = target: T3, rec cynomolgous monkey IL-17; experiment: SPR (BIAcore 2000), 25 nM IL-17, run 1
From the text: as §1, §3

[36] = target: T3, rec cynomolgous monkey IL-17; experiment: SPR (BIAcore 2000), 25 nM IL-17, run 2
From the text: as §1, §3

[37] = target: T3, rec cynomolgous monkey IL-17; experiment: SPR (BIAcore 2000), mean (printed n = 10)
From the text: as §1, §2

B1: recombinant human AIN457 (batch KB03303A) (antibody, V domains shown)
VH: EVQLVESGGGLVQPGGSLRLSCAASGFTFSNYWMNWVRQAPGKGLEWVAAINQDGSEKYYVGSVKGRFTISRDNAKNSLYLQMNSLRVEDTAVYYCVRDYYDILTDYYIHYWYFDLWGRGTLVTVSS
VL: not shown
notes: same variable domains as m1; also called AIN457 (KB03303A); NVP-AIN457 (KB03303A)
Kd (rec rhesus monkey IL-17 [1]): 8.96 nM
Kd (rec marmoset IL-17 [2]): 1.21 nM
Kd (rec rhesus monkey IL-17 [3]): 9 nM
Kd [4]: 6 nM
Kd [5]: 1.1 nM
Kd [6]: 7.08 nM
Kd (rec marmoset IL-17 [7]): 0.895 nM
Kd (rec rhesus monkey IL-17 [8]): 2.28 nM
Kd [9]: 2.24 nM
Kd (rec marmoset IL-17 [10]): 1.13 nM
Kd (rec rhesus monkey IL-17 [11]): 7.04 nM
Kd [12]: 6.9 nM
Kd (rec marmoset IL-17 [13]): 0.782 nM
Kd (rec rhesus monkey IL-17 [14]): 7.34 nM
Kd [15]: 4.75 nM
Kd (rec marmoset IL-17 [16]): 1.17 nM
Kd (rec rhesus monkey IL-17 [17]): 5.93 nM
Kd [18]: 7.17 nM
Kd (rec marmoset IL-17 [19]): 1.17 nM
Kd (rec rhesus monkey IL-17 [20]): 6.04 nM
Kd [21]: 7.89 nM
Kd (rec marmoset IL-17 [22]): 1.57 nM
Kd (rec rhesus monkey IL-17 [23]): 8.16 nM
Kd [24]: 8.32 nM
Kd (rec marmoset IL-17 [25]): 1.17 nM
Kd (rec rhesus monkey IL-17 [26]): 12.4 nM
Kd (rec marmoset IL-17 [27]): 1.36 nM
Kd (rec rhesus monkey IL-17 [28]): 9.74 nM
Kd (rec marmoset IL-17 [29]): 1.21 nM
Kd (rec rhesus monkey IL-17 [30]): 11.2 nM
Kd (rec rhesus monkey IL-17 [31]): 13.1 nM
Kd (rec rhesus monkey IL-17 [32]): 12.3 nM
Kd (rec marmoset IL-17 [33]): 1.67 nM
Kd [34]: 7.41 nM
Kd [35]: 6.26 nM
Kd [36]: 7.34 nM
Kd [37]: 6 nM
